PMC3571714

Experiments:
[1] = biological target: A4T4-His6 (module 4 multi-domain construct of NocB) (Nocardia uniformis subsp. tsuyamanensis ATCC 21806); assay: pull-down
[2] = biological target: A1T1-His6 (module 1 multi-domain construct of the nocardicin NRPS) (Nocardia uniformis subsp. tsuyamanensis ATCC 21806); assay: pull-down

stoichiometry N [1]: 1 | stoichiometry N [2]: 1
Substance: MbtH family protein NocI (untagged) (natural protein)
